From patent US20210388081A1 (Memorial Sloan Kettering, published 2021) come the findings set out here.

The target of test [1] is T1, FcRL4, overexpressed on 3T3 cells (UniProt Q96PJ5 20-515, limits assumed).
T1 construct: whole, on cells
T1 sequence (looked up): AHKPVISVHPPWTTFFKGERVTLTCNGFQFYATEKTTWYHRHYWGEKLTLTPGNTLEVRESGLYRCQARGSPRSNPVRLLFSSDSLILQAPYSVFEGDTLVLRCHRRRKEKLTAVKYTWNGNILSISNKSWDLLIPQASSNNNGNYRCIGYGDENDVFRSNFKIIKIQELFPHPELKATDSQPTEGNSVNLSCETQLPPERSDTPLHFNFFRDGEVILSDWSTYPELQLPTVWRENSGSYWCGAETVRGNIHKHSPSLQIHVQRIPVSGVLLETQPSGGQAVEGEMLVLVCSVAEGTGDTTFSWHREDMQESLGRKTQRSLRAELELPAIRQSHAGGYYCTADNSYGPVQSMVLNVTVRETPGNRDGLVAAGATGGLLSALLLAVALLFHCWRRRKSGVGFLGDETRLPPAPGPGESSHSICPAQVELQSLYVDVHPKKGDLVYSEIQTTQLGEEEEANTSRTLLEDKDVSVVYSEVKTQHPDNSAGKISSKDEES
The experiment in a line: phage clone on 3T3-FcRL4 cells.

In test [2] the target is T2, FcRL1, overexpressed on 3T3 cells (UniProt Q96LA6 17-429, limits assumed).
T2 construct: whole, on cells
T2 sequence (looked up): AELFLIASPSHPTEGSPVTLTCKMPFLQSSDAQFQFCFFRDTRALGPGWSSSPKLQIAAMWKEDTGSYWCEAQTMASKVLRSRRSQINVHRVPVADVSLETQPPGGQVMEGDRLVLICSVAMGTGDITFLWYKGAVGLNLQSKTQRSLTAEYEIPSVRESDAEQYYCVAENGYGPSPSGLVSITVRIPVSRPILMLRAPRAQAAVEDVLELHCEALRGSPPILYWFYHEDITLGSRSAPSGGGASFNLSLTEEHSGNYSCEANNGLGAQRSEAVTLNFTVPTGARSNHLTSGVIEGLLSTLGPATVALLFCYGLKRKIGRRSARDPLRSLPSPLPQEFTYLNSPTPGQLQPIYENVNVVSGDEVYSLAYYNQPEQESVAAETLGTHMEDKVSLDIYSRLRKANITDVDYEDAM
The experiment in a line: phage clone on 3T3-FcRL1 cells.

B1: ET200-008 (scFv)
scFv: QSALTQPASVSGSPGQSITISCTGTSSDVGGYNYVSWYQQHPGKAPKLMIYDVSNRPSGVSNRFSGSKSGNTASLTISGLQAEDEADYYCSSYTSSSTSKVFGGGTKLTVLGSRGGGGSGGGGSGGGGSLEMAEVQLVESGGGVVRPGGSLRLSCAASGFTFGDYGMSWVRQAPGKGLEWVSGINWNGGSTGYADSVKGRFTISRDNAKNSLYLQMNSLRAEDTAVYYCARSKYNFHVYYDYWGQGTLVTVSSTSGQAGQHHHHHHGAYPYDVPDYAS
notes: screened as phage clone; entry is VL-linker-VH-His tag-HA tag
In the case of B1, the binding result in test [1] and in test [2] was “no binding” throughout.

B2: ET200-007 (scFv)
scFv: SYVLTQPLSVSVAPGKTARITCGGNNIGSKTVHWYQQKPGQAPVLVIYYDSDRPSGIPERFSGSNSGNTATLTISRVEAGDEADYYCQVWDSSSDHRVFGGGTKLTVLGSRGGGGSGGGGSGGGGSLEMAQVQLQESGPGLVKPSETLSLTCNVSGYSISSGYFWGWIRQPPGKGLEWIGSIYHSRSTYYNPSLKSRVTISVDTSKNQFSLKLNSVTAADTAVYYCARGYGYFDYWGQGTLVTVSSTSGQAGQHHHHHHGAYPYDVPDYAS
notes: as for B1
Regarding B2, the binding result in test [1] and in test [2] was “no binding” throughout.

B3: ET200-112 (scFv)
scFv: QAVLTQPPSASGTPGQRVTISCSGSSSNIGSNTVNWYQQLPGTAPKLLMYSNDQRPSGVPDRFSGSKSGTSASLAISGLQSEDEADYYCAAWDDSLNGYVFAAGTQLTVLSSRGGGGSGGGGSGGGGSLEMAQVQLQQWGAGLLKPSETLSLTCAVYGGSFSGYYWSWIRQPPGKGLEWIGEINHSGSTNYNPSLKSRVTISVDTSKNQFSLKLSSVTAADTAVYYCAREGLDAFDIWGQGTMVTVSSTSGQAGQHHHHHHGAYPYDVPDYAS
notes: as for B1
B3: the binding result in test [1] and in test [2] was “no binding” each time.

B4: ET200-118 (scFv)
scFv: QAVLTQPASVSGSPGQSITISCTGTSSDVGGYNYVSWYQQHPGKAPKLMIYEVSNRPSGVSNRFSGSKSGNTASLTISGLQAEDEADYYCSSYTSSSTPYVFGAGTKVTVLGSRGGGGSGGGGSGGGGSLEMAEVQLVESGGGLVQPGRSLRLSCAASGFTFDDYAMHWVRQAPGKGLEWVSGISWNSGSIGYADSVKGRFTISRDNAKNSLYLQMNSLRAEDTALYYCAKARWTAVASDHHFDYWGQGTLVTVSSTSGQAGQHHHHHHGAYPYDVPDYAS
notes: as for B1
As for B4, the binding result in test [1] and in test [2] was “no binding” each time.

B5: ET200-108 (scFv)
scFv: QSVLTQPPSVSAPPGQKVTISCSGSSSNIGNNYVSWYQQFPGTAPKLLIYDNNKRPSGISDRFSGSKSGTSATLGIAGLQTGDEADYYCGTWDTSLSGFYVFGSGTKVTVLGSRGGGGSGGGGSGGGGSLEMAEVQLVQSGAEVKKPGASVKVSCKASGYTFTSYTISWVRQAPGQGLEWMGWISTYNGLTNYAQNLQGRVTMTTDTFTTTAYMELRSLRSDDTAVYYCVREGSPDYGDFASFDYWGQGTLVTVSSTSGQAGQHHHHHHGAYPYDVPDYAS
notes: as for B1
B5: the binding result in test [1] and in test [2] was “no binding” throughout.

B6: ET200-106 (scFv)
scFv: SYELTQPPAASGTPGQRVTISCSGGVSNIGSGALNWYQQLPGTAPKLLIYSYNQRPSGVSDRFSGSRSATSASLAISGLQSEDEADYYCATWDDSVNGWVFGGGTKLTVLGSRGGGGSGGGGSGGGGSLEMAEVQLVESGAEVKKPGDSVKVSCKPSGYNFLNYGINWVRQAPGQGLEWMGWISTYTGNTNYAQKLQGRVTFTTDTSTSTAYMEMRSLRSDDTAVYYCARQQGGGWYDVWGQGTLVTVSSTSGQAGQHHHHHHGAYPYDVPDYAS
notes: as for B1
As for B6, the binding result in test [1] and in test [2] was “no binding” throughout.

B7: ET200-103 (scFv)
scFv: QAVLTQPHSVSESPGKTVTISCTRSSGSIASNYVQWYQQRPGSAPTTVIYEDNQRPSGVPDRFSGSIDSSSNSASLTISGLKTEDEADYYCQSYDSTITVFGGGTKLTVLGSRGGGGSGGGGSGGGGSLEMAQVQLVQSGAEVKKPGSSVKVSCKASGGTFSSYAISWVRQAPGQGLEWMGGIIPIFGTANYAQKFQGRVTITADESTSTAYMELSSLRSEDTAVYYCAGEGYYDSSGYSNGDAFDIWGQGTMVTVSSTSGQAGQHHHHHHGAYPYDVPDYAS
notes: as for B1
Turning to B7, the binding result in test [1] and in test [2] was “no binding” throughout.

B8: ET200-116 (scFv)
scFv: QPVLTQPPSVSVSPGQTAAIPCSGDKLGDKFASWYQQKPGQSPVLVIYQDTKRPSGIPERFSGSNSGNTATLTISGTQAMDEADYYCQTWASGIVVFGGGTKLTVLGSRGGGGSGGGGSGGGGSLEMAQVQLQQSGPGLVKPSQTLSLTCAISGDSVSSNSAAWNWIRQSPSRGLEWLGRTYYRSKWYNDYAVSVKSRITINPDTSKNQFSLQLNSVTPEDTAVYYCARERSGWKGFDYWGQGTLVTVSSTSGQAGQHHHHHHGAYPYDVPDYAS
notes: as for B1
B8: the binding result in test [1] and in test [2] was “no binding” throughout.

B9: ET200-115 (scFv)
scFv: QSVLTQPPSVSGAPGQRVTISCTGSSSNIGARYDVHWYQQLPGTAPRLLISANYDRPSGVPDRFSGSKSGTSASLAITGLQAEDEADYYCQSYDSSVSAWVFGGGTKVTVLGSRGGGGSGGGGSGGGGSLEMAEVQLVQSGAEVKEPGASVRISCQASGYNFISYYMHWVRQAPGQGLEWMGTINPGSGETDYSQKLQGRVTMTRDPSTGTFDMGLSSLTSGDTAVYYCATGLIRGASDAFNIWGRGTMVTVSSTSGQAGQHHHHHHGAYPYDVPDYAS
notes: as for B1
Turning to B9, the binding result in test [1] and in test [2] was “no binding” each time.

B10: ET200-107 (scFv)
scFv: QSVVTQPPSVSAAPGEKVTISCSGSNFNVGNNDVSWYQQLPGAAPKLLIYDNNKRPSGIPDRFSGSKSGTSATLDITGLHSDDEADYYCGTWDSSLNTGGVFGTGTKVTVLGSRGGGGSGGGGSGGGGSLEMAEVQLVQSGAEVKKPGASVKVSCKASGYTFTSYTISWVRQAPGQGLEWMGWISTYNGLTNYAQNLQGRVTMTTDTFTTTAYMELRSLRSDDTAVYYCVREGSPDYGDFASFDYWGQGTLVTVSSTSGQAGQHHHHHHGAYPYDVPDYAS
notes: as for B1
As to B10, the binding result in test [1] and in test [2] was “no binding” each time.

B11: ET200-113 (scFv)
scFv: QSVVTQPPSVSAAPGQKVTISCSGSSSNIGNNYVSWYQQLPGTAPKLLIYDNNKRPSGIPDRFSGSKSGTSATLGITGLQTGDEADYYCGTWDSSLSAAYVFGTGTKVTVLGSRGGGGSGGGGSGGGGSLEMAQVQLVQSGAEVKKPGASVKVSCKASGYSFTSYTISWVRQAPGQGLEWMGWVSTYNGLRNYAQNLQGRVTMTTDTLTTTAYMELRSLRSDDTAVYYCVREGSPDYGDFAAFDYWGQGTLVTVSSTSGQAGQHHHHHHGAYPYDVPDYAS
notes: as for B1
As for B11, the binding result in test [1] and in test [2] was “no binding” in each case.

B12: ET200-110 (scFv)
scFv: QSVLTQPPSASGTPGQRVTISCSGSSSNIGTNGVNWFQQFPGTAPKLLIYTNDQRPSGVPDRFSGSKSGTSASLAISGLQSADEADYYCAVWDHSLNGPVFGGGTKLTVLGSRGGGGSGGGGSGGGGSLEMAQVQLVQSGAEVKKPGSSVKVSCKASGGTFSSYAISWVRQAPGQGLEWMGGIIPIFGTANYAQKFQGRVTITADESTSTAYMELSSLRSEDTAVYYCARGAGFDAFDIWGQGTMVTVSSTSGQAGQHHHHHHGAYPYDVPDYAS
notes: as for B1
For B12, the binding result in test [1] and in test [2] was “no binding” in each case.

B13: ET200-109 (scFv)
scFv: LPVLTQPPSASATPGQRVTISCSGTTSNIGSNTVHWYQQLPGTAPKLLIYNNNQRPSGVPDRFSGSKSGTSASLAISGLRSEDEATYSCATWDDSLSGVVFGGGTKLTVLGSRGGGGSGGGGSGGGGSLEMAEVQLVQSGAEVKKPGSSVKVSCKASGGTFSSYAISWVRQAPGQGLEWMGGIIPIFGTANYAQKFQGRVTITADESTSTAYMELSSLRSEDTAVYYCARDPAYGDYEYDAFDIWGQGTMVTVSSTSGQAGQHHHHHHGAYPYDVPDYAS
notes: as for B1
As to B13, the binding result in test [1] and in test [2] was “no binding” in each case.

B14: ET200-105 (scFv)
scFv: SYVLTQPPSVSVSPGQTASITCSGDRLTNKYVSWYQQKPGQSPVLVIYEDAKRPSGIPARFSGSNSGNTATLTISGTQAMDESEYYCQAWDSSVVVFGGGTKLTVLGSRGGGGSGGGGSGGGGSLEMAEVQLVESGGGLVQPGRSLRLSCAASGFTFDDYAMHWVRQAPGKGLEWVSGISWNSGSIGYADSVKGRFTISRDNAKNSLYLQMNSLRDEDTALYYCAKDRGGGVIVKDAFDIWGQGTMVTVSSTSGQAGQHHHHHHGAYPYDVPDYAS
notes: as for B1
B14: the binding result in test [1] and in test [2] was “no binding” in each case.
